Where two headings read alike, the source gives them in different places.
Legend:
[1] = target: the molecule itself; assay: SDS-resistant complexes on SDS-polyacrylamide gel, coomassie staining
[2] = target: the molecule itself

Row | Protein | binding result [1] | binding result [2]
1 | MBP-Agno (17-71) (domain or fragment) TWSGTKKRAQRILIFLLEFLLDFCTGEDSVDGKKRQRHSGLTEQTYSALPEPKAT | binds | –
2 | MBP-SV40 Agno (full length SV40 agnoprotein fused to MBP) (natural protein) MVLRRLSRQASVKVRRSWTESKKTAQRLFVFVLELLLQFCEGEDTVDGKRKKPERLTEKPES | – | binds

Reference: publication PMC3229823 (Virology, 2011)
